Residue numbers refer to the chain shown, from its start. Each block holds one binder with its values, some of them ahead of it.
Columns and labels:
murine CD300D-Fc [1] = target: T1, murine CD300D-Fc (mouse); assay: SPR (Carterra LSA), antibody immobilised
T1 construct: mouse IgG2a-Fc fusion (R&D Systems); the entry is the whole fusion chain; also called mCD300D; Mouse CD300D-Fc
T1 chain: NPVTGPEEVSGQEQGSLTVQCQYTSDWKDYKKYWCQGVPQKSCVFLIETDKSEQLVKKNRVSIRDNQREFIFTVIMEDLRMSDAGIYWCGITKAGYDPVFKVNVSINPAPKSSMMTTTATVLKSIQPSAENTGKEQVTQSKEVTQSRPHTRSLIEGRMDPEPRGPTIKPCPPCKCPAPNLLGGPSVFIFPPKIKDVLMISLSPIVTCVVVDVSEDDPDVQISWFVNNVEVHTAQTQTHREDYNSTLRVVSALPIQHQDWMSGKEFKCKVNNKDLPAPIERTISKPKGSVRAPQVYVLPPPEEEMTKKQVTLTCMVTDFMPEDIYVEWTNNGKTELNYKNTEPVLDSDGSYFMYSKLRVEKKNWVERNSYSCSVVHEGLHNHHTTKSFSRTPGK
Outline: (§1)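 Mouse anti-CD300LB IgG1 antibodies were amine-coupled in a 96-spot array on an HC200M chip; Fc-fused CD300 ectodomains (human on hIgG1-Fc) flowed over as analytes at 300 nM or 600 nM in HBS-TE with 0.5 mg/ml BSA, injected in series without regeneration, with kinetics fitted by high-throughput analysis.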

murine CD300D-Fc [2] = target: T1, murine CD300D-Fc; assay: SPR (Carterra LSA), antibody immobilised, Fc fusion at 300 or 600 nM
human CD300E-Fc = target: T2, human CD300E-Fc (human); assay: SPR (Carterra LSA), antibody immobilised
T2 construct: hIgG1-Fc fusion; the entry is the whole fusion chain
T2 chain: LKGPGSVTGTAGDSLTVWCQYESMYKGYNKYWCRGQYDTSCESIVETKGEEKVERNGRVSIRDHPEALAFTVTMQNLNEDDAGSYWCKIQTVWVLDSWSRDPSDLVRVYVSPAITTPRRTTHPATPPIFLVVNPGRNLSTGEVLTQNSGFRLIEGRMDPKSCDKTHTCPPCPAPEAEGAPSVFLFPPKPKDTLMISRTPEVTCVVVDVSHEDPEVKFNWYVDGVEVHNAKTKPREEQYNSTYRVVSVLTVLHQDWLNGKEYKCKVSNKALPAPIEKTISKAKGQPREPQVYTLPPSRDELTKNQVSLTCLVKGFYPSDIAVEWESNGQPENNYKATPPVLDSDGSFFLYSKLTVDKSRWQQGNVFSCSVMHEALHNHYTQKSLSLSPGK
Outline: as §1

[3] = target: T3, human CD300LB on primary human monocytes (human, UniProt A8K4G0 18-201); assay: flow cytometry, primary human monocytes donor 1283, 10 ug/mL antibody, isotype control subtracted
T3 construct: Endogenous protein on primary cells; that the target is CD300LB is inferred from the antibodies being anti-CD300LB antibodies; also called Monocyte donor 1281; Monocyte donor 1282
T3 sequence: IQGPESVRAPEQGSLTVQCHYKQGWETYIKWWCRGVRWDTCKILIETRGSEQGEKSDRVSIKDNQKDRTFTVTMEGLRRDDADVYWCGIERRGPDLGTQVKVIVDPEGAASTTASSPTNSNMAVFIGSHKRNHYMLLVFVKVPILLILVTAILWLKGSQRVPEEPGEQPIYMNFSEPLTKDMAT
Description: (§2) Human monocytes from various donors were isolated from whole blood using RosetteSep Human Monocyte Enrichment Cocktail (Stemcell technologies) and Ficoll centrifugation per manufacturer protocols. After lysing red blood cells with ACK lysing buffer, monocytes were resuspended in complete media (RPMI, 10% FBS, Pen/Strep, L-glutamine, HEPES, non-essential amino acid, Sodium pyruvate). To obtain macrophages from these isolated monocytes, 100 ng/ml human M-CSF and 8% v/v human serum were added to the cells for 5-7 days. Cells were counted on the day of the experiment and plated at 100,000 cells per well in a round-bottom 96 well plate. Cells were incubated with TruStain Fc block and 10 μg/mL antibody for 1 hour on ice before washing with 250 μL ice cold PBS twice. Cells were then incubated with the appropriate APC-conjugated secondary antibodies for 20 minutes in the dark on ice. Finally, cells were washed twice with ice cold FACS buffer and then resuspended in 100 μL FACS buffer containing 1% propidium iodide. Samples were immediately analyzed using a BD FACSCanto flow cytometer. The gMFI was calculated using FlowJo software minus the gMFI of the appropriate isotype control.

[4] = target: T3, human CD300LB on primary human monocytes; assay: flow cytometry, primary human monocytes donor 1282, 10 ug/mL antibody, isotype control subtracted
Description: as §2

B1: anti-CD300LB antibody CD-11 (antibody, V domains shown)
VH: QIQLVQSGPEVKKPGETVKISCKASGYTLTDYSMHWVMQTPGTGLKWMAWMNTETGEPTYADDFKGRFAFSLETSAGTAYLQIDNLKNEDTATYFCATYGKSYGMKYWGQGTSVTVSS
VL: DIVLTQSPPSLAVSLGQRATISCRATKSVSPYLHWYQQTPGQPPKLLIYLASNLDSGVPARFSGSGSGTDFTLNIHPVEEEDAATYYCQHNKELPPTFGGGTRLEIK
binding result (murine CD300D-Fc [1]): no binding (tested: 300 nM or 600 nM) | SPR binding (control subtracted) (murine CD300D-Fc [2]): -0.1

B2: anti-CD300LB antibody CD-02 (antibody, V domains shown)
VH: QVQLQQPGAELVRPGSSVKLSCQASGYTFTNYWMHWVRQRPIQGLEWIGNIDPSDSETHYNQKFKDRATLTVDKSSSTAYMQLSSLTSEDSAVYYCARSGVYDDEGGDYWGQGTTLTVSS
VL: ENVLTQSPAIMSASPGEKVTMTCSASSSVSYIHWYQQKSSTSPKLWIYDTSKLASGVPGRFSGSGSGNSYSLTISSMETEDVATYYCFQGSGYPLTFGAGTKLELK
binding result (human CD300E-Fc): no binding (tested: 300 nM or 600 nM)

B3: anti-CD300LB antibody CD-01 (antibody, V domains shown)
VH: RVQLQQSGAELVRPGASVTLSCKASGFTFTDFEMHWVKKTPVHGLEWIGAIDPESGNTAYNQKFRGKATLTADKSSSTAYMELRYLTSEDSAVYYCTPLISGADYWGQGTTLTVSS
VL: DVVMTQSPLSLPVSLGDQASISCRSSQSLVHSDGNTYLYWYLQKPGQSPKLLIYKVSNRFSGVPDRFSGSGSGTDFTFKISRVGAEDLGVYFCSQSTHVPWTFGGGTKLEII
binding result (human CD300E-Fc): no binding (tested: 300 nM or 600 nM)

B4: anti-CD300LB antibody CD-03 (antibody, V domains shown)
VH: EVQLQQSGPELVKPGASVKISCKASGYTFTDYYINWVRQSHGKSLECIGDINPNNGGTNYNQKFKGKATLTVDRSSNTAYMEFRSLTFDDSALYYCAAEGAYWGQGTLVTVSA
VL: not shown
binding result (human CD300E-Fc): no binding (tested: 300 nM or 600 nM)

B9: anti-CD300LB antibody CD-07 (antibody, V domains shown)
VH: QVQLVQSGAEVKKPGASVKVSCKASGYTFTNYRMHWVRQAPGQGLEWMGWINPNSGGTIYAQKFQGRVTMTRDTSTSTVYMELSSLRSEDTAVYYCARDLDYWGQGTLVTVSS
VL: DIQMTQSPSSLSASVGDRVTITCQASQDISNYLNWYQQKPGKAPKLLIYGASSLQSGVPSRFSGSGSGTDFTLTISSLQPEDFATYYCQQSYSTPWTFGPGTKVEIK
gMFI [3]: 47 gMFI | gMFI [4]: 468 gMFI

B10: anti-CD300LB antibody CD-05 (antibody, V domains shown)
VH: QVQLVQSGAEVKKPGASVKVSCKASGYTFSRYYINWVRQAPGQGLEWMGWINPNSGGTNYAQKFQGRVTMTRDTSTSTVYMELSSLRSEDTAVYYCTTDQLRFGKTGPYYGMDVWGQGTTVTVSS
VL: B9 VL with Q24R, D28N, S30G, N31T, G50A, T94D, P95T, W96L, P100G
gMFI [3]: 935 gMFI | binding result (human CD300E-Fc): no binding (tested: 300 nM or 600 nM) | gMFI [4]: 1560 gMFI

B11: anti-CD300LB antibody CD-06 (antibody, V domains shown)
VH: QVQLVQSGAEVKKPGASVKVSCKASGYTFTTYAVHWVRQAPGQGLEWMGIVNPNSGGTNYAQKFQGRVTMTRDTSTSTVYMELSSLRSEDTAVYYCARDIVPMNNFYNYYYGMDVWGQGTTVTVSS
VL: B9 VL with Q24R, D28S, N31S, G50A, A51T, S53T, S93R, T94I, W96Y, P100Q
gMFI [3]: 2470 gMFI | gMFI [4]: 3440 gMFI

Results, then the binder that gave them:

binding result (murine CD300D-Fc [1]): no binding (tested: 300 nM or 600 nM) | SPR binding (control subtracted) (murine CD300D-Fc [2]): 0.6
B5: anti-CD300LB antibody CD-12 (antibody, V domains shown)
VH: QIQLVQSGPELKKPGETVKISCKASGYTFTDYSMHWVRQAPGKGLKWMAWINTETGEATHADDFKGRFDFSLDTSASTAYLQIKNLKNEDTGIYFCVCYGSSYGMDYWGQGTSVTVSS
VL: DIVLTQSPASLPVSLGQRATISCRASKSVRTSGASYMHWYQQKPGQPPKLLIYLASNLKSGVPTRFSGSGSGTDFTLNIHPVEEEDAATYYCQHNREVPPTFGGGTKLEIK

binding result (murine CD300D-Fc [1]): no binding (tested: 300 nM or 600 nM) | SPR binding (control subtracted) (murine CD300D-Fc [2]): 0.8
B6: anti-CD300LB antibody CD-17 (antibody, V domains shown)
VH: QIQLVQSGPELKKPGETVKISCKASGYTLTDYSMHWVKQAPGKGLKWMGWINTETGEPRYGDDFKGRFAFSLETSASSAYLQINNLKNDDTATYFCATYGRSYGMDFWGQGTSVTVSS
VL: B5 VL with P12A, R30S, T31P, A34H, T64A, E85G, V98L, T106S

binding result (murine CD300D-Fc [1]): no binding (tested: 300 nM or 600 nM) | SPR binding (control subtracted) (murine CD300D-Fc [2]): 1.7
B7: anti-CD300LB antibody CD-15 (antibody, V domains shown)
VH: QIQLVQSGPELKKPGETVKISCQVSGYTFTDYSMHWLKQAPGKGLKWMAWINTETGESTYTDEFKGRFVFSLETSVRTAYLKINNLKNEDTATYFCGTYGSSYGMAYWGQGTSVTVSS
VL: B5 VL with R30S, A34S, M37L, N57K, K59E, T64A, S67R

binding result (murine CD300D-Fc [1]): no binding (tested: 300 nM or 600 nM) | SPR binding (control subtracted) (murine CD300D-Fc [2]): 0.6
B8: anti-CD300LB antibody CD-18 (antibody, V domains shown)
VH: DVQLQESGPDLVKPSQSLSLTCTVTGYSITSGYSWHWIRQFPDNKLEWMGYILSRGDTNFNPSLKSRISITRSTSNNQFFLHFNSVTTEDTATYYCARDFFDYWGQGTTLTVSS
VL: DVLMTQTPLSLPVSLGDQASISCRSSQSIVHSNGNTYLEWYLQKPGQSPKLLIYKVSDRFSGVPDRFSGSGSGTDFTLKISRVEAEDLGVYFCFQGSHVPYTFGGGTKLEIK

Reference: patent US20240254227A1 (Alector, published 2024)
